Patent US20120165265A1, “Calcium Signaling Modulators Involving STIM and ORAI Proteins” (priority 2009, published 2012)

Biological target: eGFP-myc-Orai1 (UniProt Q96D31)
Assay: cell-based or functional assay

Chain of eGFP-myc-Orai1 (Q96D31 whole entry): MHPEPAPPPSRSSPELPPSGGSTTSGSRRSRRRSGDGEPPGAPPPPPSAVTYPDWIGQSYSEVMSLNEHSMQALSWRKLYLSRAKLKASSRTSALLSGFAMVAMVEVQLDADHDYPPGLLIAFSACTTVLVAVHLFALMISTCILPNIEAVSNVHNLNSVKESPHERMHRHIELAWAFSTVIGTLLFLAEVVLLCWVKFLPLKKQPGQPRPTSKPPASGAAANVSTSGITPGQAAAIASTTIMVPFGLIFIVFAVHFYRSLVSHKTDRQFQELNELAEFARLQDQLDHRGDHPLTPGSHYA

mCh-CAD (from UniProt Q13586 342-448)
diffusion coefficient fitted to FRAP of a single cell expressing eGFP-Orai1 with CAD: 0.026 µm^2/s
effective diffusion coefficient (D) of GFP-Orai1 co-expressed with CAD, FRAP in HEK 293 cells: 0.036 µm^2/s
mobile fraction of GFP-Orai1 co-expressed with CAD, FRAP: 87%
slowing of Orai1 diffusion by CAD, FRAP: 2 fold
